Laboratory results as given in patent US20260049134A1 (UNIVERSITY OF FLORIDA RESEARCH FOUNDATION, published 2026).
Residue numbers refer to the chain shown, from its start. Names may count otherwise.

B1: HW-81 chimeric rabbit-human IgG1 LA/LA/PG (antibody, V domains shown)
VH: QKQLVESGGGLVTPGGTLTLTCTVSGFSLSSNGVSWVRQAPGKGLEYIGLIRSIGSTYYATWAKGRFTISKTSTTVDLKITSPTTEDTATYFCARGGYRNGFKLWGPGTLVTVSS
VL: QPVLTQSPSVSAALGASAKLTCTLSSAHKTYYIEWYQQQHPGKAPRYLMQLQSDGSYTKGTGVPDRFSGSSSGADRYLIISSVQAEDEADYICGVIDSAVYVFGGGTQLTVTG
notes: Fc-silenced (L234A/L235A/P329G) IgG1, lambda; Alexa Fluor 647-labeled in single-step flow cytometry; Cluster C-45
B2: HW-56 chimeric rabbit-human IgG1 LA/LA/PG (antibody, V domains shown)
VH: QSVKESEGGLFKPTDTLTLTCTASGFTVSTNAVTWVRQAPGNGLEYIGTIGRSGSAYFASWAKRRSTLTRDINLNTVTLKMTSLTAADTATYFCVRGSPGYRTAISIWGPGTLVTISS
VL: AVMTQTPSSTSAAVEGTVTINCQASQSISNRLSWFQQKPGQPPKLLIYQASTLASGVPSRFKGSGSGTEFTLTISGVQREDAATYYCLGSYSSSDASFGGGTKLEIKR
notes: Fc-silenced (L234A/L235A/P329G) IgG1, kappa; Alexa Fluor 647-labeled in single-step flow cytometry; Cluster C-45
B3: HW-42 chimeric rabbit-human IgG1 LA/LA/PG (antibody, V domains shown)
VH: QSVKESEGGLFKPADTLTLTCTVSGFSLSSNEISWVRQAPGEGLEYIGIIDTGGRAYYAVWARSRSTITRNTNLNTVTLKMTSLTAADTATYFCARGGVDTEWYAFSSWGPGTLVTVPS
VL: SFVLTQPASVQVNLGQTVSLTCTADTLSRRYASWYQQKPGQAPVLLIFRDTSRPSGVPDRFSGSSSGDTATLTISGAQAGDEADYYCATSDGSGSNYQYVFGGGTQLTVTG
notes: Fc-silenced (L234A/L235A/P329G) IgG1, lambda; Alexa Fluor 647-labeled in single-step flow cytometry; Cluster C-1
B4: HW-45 chimeric rabbit-human IgG1 LA/LA/PG (antibody, V domains shown)
VH: QKQLVESGGRLVTPGTPLTLTCTVSGFSLSSYAMGWFRQAPGKGLEWIGIINSYGSTYYASWAKGRFTISKTSTTVDLKITSPTTEDTATYFCGRRIGSARFDPWGPGTLVTVSS
VL: B3 VL with R30S, F48Y, S52R, D68N, N96S, Q98R, Y99L
notes: Fc-silenced (L234A/L235A/P329G) IgG1, lambda; Alexa Fluor 647-labeled in single-step flow cytometry; Prototype of cluster C-45
B5: HW-70 chimeric rabbit-human IgG1 LA/LA/PG (antibody, V domains shown)
VH: QSLEESGGRLVTPGTPLTLTCTVSGFSLSSNAMSWVRQAPGKGLEWIGTIDGYGYTYYASWAKGRFTVSKTSTTVDLKITSPTTEDTATYFCAREIYLGSNFWGPGTLVTISS
VL: B3 VL with F48Y, D68N, S90A, N96S, Y99F
notes: as for B3
B6: HW-1 chimeric rabbit-human IgG1 LA/LA/PG (antibody, V domains shown)
VH: QSLEESGGGLFKPTDTLTLTCTASGFSLGSSYAISWVRQAPGKELEWIGTIDSGRAYYARWAKSRSTITRNTNENTVTLKMTSLTAADTATYFCARDLIPTYSQDIWGPGTLVTISS
VL: B3 VL with F48Y, D68N, S95N, N96S, G111S
notes: Fc-silenced (L234A/L235A/P329G) IgG1, lambda; Alexa Fluor 647-labeled in single-step flow cytometry; Prototype of cluster C-1
B7: HW-28 chimeric rabbit-human IgG1 LA/LA/PG (antibody, V domains shown)
VH: QKQLVESGGRLVTPGTPLTLTCTASGFSLSSNAMSWVRQAPGEGLQWIGTISSGGSTYYASWAKGRFTISKTSTTVTLKMTSLTTEDTATYFCARGADLHRLWGPGTLVTVSS
VL: B3 VL with A24G, D25K, T26P, R30S, Y31F, L46V, F48Y, D68N, N96S
notes: as for B1
B8: HW-17 chimeric rabbit-human IgG1 LA/LA/PG (antibody, V domains shown)
VH: QSLGESRGRLVTPDETLTLTCTVSGIDLSSNAMSWVRQAPGEGLEWIGTINTGGRAYYASWAKGRFTISRTSTTVDLKMTSLTTEDTATYFCARERYSDGRAYDIWGPGTLVTISS
VL: B3 VL with F48Y, R49T, T51S, S52N, V57I, D68N, S90D, N96I
notes: as for B3
B9: HW-25 chimeric rabbit-human IgG1 LA/LA/PG (antibody, V domains shown)
VH: QSLEESGGRLVTPGTPLTLTCTVSGFSLSSYAMGWVRQAPGKGLEWIGIIDSRGSTYYATWAKGRFTISKTSTTVDLKITSPTTEDTATYFCAREDSYYYDSFNLWGPGTLVTVSS
VL: B3 VL with F48Y, D68N, N96S, Y99C
notes: as for B3
B10: TH9-0022 (antibody, human IgG1, kappa, L234A L235A, V domains shown)
VH: QSLEESGGRLVTPGTPLTLTCTVSGFSLSSYAMNWVRQAPGKGLEWIGIINSYGSTYYASWAKGRFTISKTSTTVDLKITSPTTEDTATYFCARVTYDSYGYGYAPYGMDLWGPGTLVTVSS
VL: LVMTQTPSSTSNAVGGTVTIKCQASQSIGNVLAWYQQKPGQPPKLLIYAASTLASGVPSRVGGSRSGTEYTLTISGVQREDAATYYCLGSDSDSDIAFGGGTELEILR
notes: also called TH9-022; negative control
B11: HW-8 chimeric rabbit-human IgG1 LA/LA/PG (antibody, V domains shown)
VH: QSLEESGGRLVTPGTPLTLTCTVSGFSLSSYAMSWVRQAPGKGLEWIGAISTGGSTTYASWAKGRFTISKTSSTTVDLKMTSLTTEDTATYFCVRHFRLWGPGTLVTISS
VL: QVLTQTPSSVSAAVGGTVTIKCQASQSIGSALAWFQQKPGQRPKLLIYRASNLASGVPSRFKGSGSGTEFALTISGVQREDAATYYCLGGAAAVWAFGAGTNVEIKR
notes: as for B2

What was measured:
ICAM1-Fc (R&D Systems) = molecular target: T1, ICAM1-Fc (R&D Systems) (human, UniProt P05362 28-480); test: ELISA on coated ICAM1-Fc, 150 ng IgG1; None 0.060
T1 construct: Bought; also called ICAM-1/CD54; not shown: Fc of the bought fusion protein
T1 sequence (P05362 28-480): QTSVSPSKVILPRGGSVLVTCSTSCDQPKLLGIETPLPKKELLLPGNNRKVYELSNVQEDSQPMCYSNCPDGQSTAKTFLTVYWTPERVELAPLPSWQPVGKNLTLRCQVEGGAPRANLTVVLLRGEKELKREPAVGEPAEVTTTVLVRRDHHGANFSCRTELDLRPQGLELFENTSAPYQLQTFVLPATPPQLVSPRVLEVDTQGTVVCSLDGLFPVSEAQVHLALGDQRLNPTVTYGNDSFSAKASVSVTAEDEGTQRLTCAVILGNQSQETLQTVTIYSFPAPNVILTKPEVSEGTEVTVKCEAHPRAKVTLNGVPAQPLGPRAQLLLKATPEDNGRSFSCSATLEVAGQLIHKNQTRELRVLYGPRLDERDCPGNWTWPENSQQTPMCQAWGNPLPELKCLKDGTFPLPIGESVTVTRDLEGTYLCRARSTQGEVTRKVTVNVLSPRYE
Description: (§1) Recombinant purified ECDs (50-150 ng) of each putative target protein were coated, incubated with 150 ng of the indicated primary antibody, and binding was detected using a peroxidase-conjugated anti-human Fab secondary antibody. Heatmap represents averages of technical triplicates. (8B) Target validation via siRNA knockdown. H929 cells were transfected with siRNA pools targeting the putative antibody targets ICAM1, CADM1, and PTPRG. Cells were then subjected to cognate IgG binding analysis via flow cytometry. (NT, non-targeting siRNA).
(§2) ELISA ELISA was conducted as described previously. Briefly, 50-150 ng of antigen was coated overnight in half-area 96-well plates at 4° C., blocked with 3% BSA at 37° C. for 1 h, and 150 ng of chimeric rabbit/human IgG1 was added, incubating for 2 h at 37° C. […] After incubating at 37° C. for 15 min-1 h (depending on intensity of controls), data were acquired using a SpectraMax M5 plate reader (Molecular Devices).

ANXA1 = molecular target: T2, ANXA1; test: ELISA on coated ANXA1-His, 150 ng IgG1; None 0.098
T2 construct: coated protein in the ELISA; also called ANXA1-His (R&D Systems)
T2 chain: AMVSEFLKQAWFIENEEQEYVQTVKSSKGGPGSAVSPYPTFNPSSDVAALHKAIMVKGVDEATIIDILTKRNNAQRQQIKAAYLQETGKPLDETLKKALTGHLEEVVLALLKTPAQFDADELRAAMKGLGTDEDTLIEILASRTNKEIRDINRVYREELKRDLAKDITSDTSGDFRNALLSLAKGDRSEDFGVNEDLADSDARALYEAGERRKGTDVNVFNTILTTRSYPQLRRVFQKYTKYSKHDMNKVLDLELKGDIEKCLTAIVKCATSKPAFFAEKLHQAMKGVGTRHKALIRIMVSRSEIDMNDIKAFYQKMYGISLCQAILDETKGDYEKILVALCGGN
Description: as §1, §2

HHLA2 (B7-H7) = molecular target: T3, HHLA2 (B7-H7); test: ELISA on coated HHLA2-Fc
T3 construct: coated protein in the ELISA; also called HHLA2-Fc (R&D Systems)
T3 chain: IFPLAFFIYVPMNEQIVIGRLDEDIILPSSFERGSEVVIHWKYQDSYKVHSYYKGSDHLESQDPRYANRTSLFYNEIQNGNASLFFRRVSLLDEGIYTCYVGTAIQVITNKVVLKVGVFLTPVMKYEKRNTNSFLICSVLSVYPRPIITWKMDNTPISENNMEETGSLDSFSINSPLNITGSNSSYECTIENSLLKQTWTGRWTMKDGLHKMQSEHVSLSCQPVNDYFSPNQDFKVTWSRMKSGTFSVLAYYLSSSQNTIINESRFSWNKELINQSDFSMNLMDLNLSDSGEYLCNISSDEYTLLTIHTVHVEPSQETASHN
Description: as §1, §2

[1] = molecular target: T4, GARS-His (Sino Biological) (human, UniProt P41250 37-739, limits assumed); test: ELISA on coated GARS-His, 150 ng IgG1; None 0.099
T4 construct: Bought; also called GARS1; glycyl-tRNA synthetase; not shown: His tag of the bought protein
T4 sequence: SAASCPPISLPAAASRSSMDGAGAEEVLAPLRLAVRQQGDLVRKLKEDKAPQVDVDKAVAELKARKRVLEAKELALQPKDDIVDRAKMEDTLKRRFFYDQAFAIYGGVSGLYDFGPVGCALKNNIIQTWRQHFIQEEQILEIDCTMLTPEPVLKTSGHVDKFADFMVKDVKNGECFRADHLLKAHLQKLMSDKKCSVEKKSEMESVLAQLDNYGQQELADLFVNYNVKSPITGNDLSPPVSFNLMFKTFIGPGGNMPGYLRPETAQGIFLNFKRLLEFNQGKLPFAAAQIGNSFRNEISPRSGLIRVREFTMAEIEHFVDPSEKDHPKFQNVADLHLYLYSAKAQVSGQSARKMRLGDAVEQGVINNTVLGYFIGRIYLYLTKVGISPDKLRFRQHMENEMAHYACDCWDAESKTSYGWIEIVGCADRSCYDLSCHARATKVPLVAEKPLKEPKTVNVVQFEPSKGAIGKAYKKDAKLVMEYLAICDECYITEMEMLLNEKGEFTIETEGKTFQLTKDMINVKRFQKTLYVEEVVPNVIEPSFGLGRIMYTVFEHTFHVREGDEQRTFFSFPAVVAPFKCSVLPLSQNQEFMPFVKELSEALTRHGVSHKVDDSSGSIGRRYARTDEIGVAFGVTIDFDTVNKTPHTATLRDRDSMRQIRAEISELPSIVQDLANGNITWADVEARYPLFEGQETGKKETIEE
Description: as §1, §2

PTP4A3 (PRL-3) = molecular target: T5, PTP4A3 (PRL-3); test: ELISA on coated His-PTP4A3
T5 construct: coated protein in the ELISA; also called His-PTP4A3 (R&D Systems)
T5 sequence (chain, as listed by the source limits assumed): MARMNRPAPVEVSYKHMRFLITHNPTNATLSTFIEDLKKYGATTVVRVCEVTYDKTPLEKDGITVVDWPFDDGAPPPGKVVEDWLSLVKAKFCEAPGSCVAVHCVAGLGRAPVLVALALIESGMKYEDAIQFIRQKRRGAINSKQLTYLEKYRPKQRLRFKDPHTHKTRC
Description: as §1, §2

Binder	ELISA Absorbance (405 nm-570 nm) (ICAM1-Fc (R&D Systems))	ELISA Absorbance (405 nm-570 nm) (ANXA1)	binding result (HHLA2 (B7-H7))	ELISA Absorbance (405 nm-570 nm) [1]	binding result (PTP4A3 (PRL-3))
B1	0.051	0.065	no binding (tested: 150 ng IgG1 per well)	0.641	no binding (tested: 150 ng IgG1 per well)
B2	0.074	0.082	no binding (tested: 150 ng IgG1 per well)	0.651	no binding (tested: 150 ng IgG1 per well)
B3	0.082	0.103	no binding (tested: 150 ng IgG1 per well)	0.099	no binding (tested: 150 ng IgG1 per well)
B4				0.741	
B5	0.064	0.102	no binding (tested: 150 ng IgG1 per well)	0.087	no binding (tested: 150 ng IgG1 per well)
B6	0.065	0.085	no binding (tested: 150 ng IgG1 per well)	0.091	no binding (tested: 150 ng IgG1 per well)
B7	0.085	0.153		0.628	
B8	0.071	0.073	no binding (tested: 150 ng IgG1 per well)	0.074	no binding (tested: 150 ng IgG1 per well)
B9	0.054	0.065	no binding (tested: 150 ng IgG1 per well)	0.103	no binding (tested: 150 ng IgG1 per well)
B10	0.077	0.09	no binding (tested: 150 ng IgG1 per well)	0.098	no binding (tested: 150 ng IgG1 per well)
B11	0.067	0.077	no binding (tested: 150 ng IgG1 per well)	0.081	no binding (tested: 150 ng IgG1 per well)
